From patent US20240101642A1 (DUKE UNIVERSITY, published 2024)

Columns and labels:
[1] = target: T1, wild-type (WT) β2AR reconstituted in high-density lipoprotein particles (HDL-β2AR), non-phosphorylated (human, UniProt P07550 1-413); assay: cell-based or functional assay
[2] = target: β2AR ligated to a non-phosphorylated version of the V2R peptide, in HDL particles (β2ARnp) (human, UniProt P07550 1-365); assay: cell-based or functional assay
[3] = target: T1, wild-type (WT) β2AR reconstituted in …; assay: in situ read-outs: [125I]-CYP/isoproterenol competition binding with HDL-β2AR and bimane fluorescence
Method: Bimane-labeled β2AR or β2ARpp HDLs were incubated with or without isoproterenol for 15 min at room temperature before the addition of excess transducer. […] The reactions were equilibrated for at least 30 min in black, solid-bottom 96-well microplates before fluorescence emission spectra were collected on a CLARIOstar plate reader (BMG LABTECH) in top-read mode, with excitation at 370 nm (16 nm bandpass) and emission scanning from 400 nm to 600 nm (10 nm bandpass) in 1 nm increments. Reactions were set up in duplicate in each experiment, and wells for background subtraction contained all components except the bimane-labeled HDLs. Experiments were repeated at least three times.
Radioligand Binding: All equilibrium competition radioligand binding studies were conducted in a final volume of 200 μL containing HDL-receptor, radioligand, a titration of unlabeled competitor, and the presence or absence of the indicated transducer protein. All components were diluted in assay buffer containing 20 mM HEPES, pH 7.4, 100 mM NaCl, and 1 mg/mL bovine serum albumin (BSA). […] Binding reactions proceeded at room temperature and were harvested onto glass-fiber filters (GFB) with 0.3% polyethyleneimine (PEI) using a 96-well Brandel harvester. Binding data were analyzed in GraphPad Prism using a sigmoidal dose-response curve fit, and differences in log IC50 values were analyzed by one-way ANOVA.

B1: β-arrestin1, minimal cysteine and truncated variant of rat βarr1 (βarr1-MC-393) (other, UniProt P29066 1-393, looked up)
chain: MGDKGTRVFKKASPNGKLTVYLGKRDFVDHIDLVDPVDGVVLVDPEYLKERRVYVTLTAAFRYGREDLDVLGLTFRKDLFVANVQSFPPAPEDKKPLTRLQERLIKKLGEHAYPFTFEIPPNLPSSVTLQPGPEDTGKAIGVDYEVKAFVAENLEEKIHKRNSVRLVIRKVQYAPERPGPQPTAETTRQFLMSDKPLHLEASLDKEIYYHGEPISVNVHVTNNTNKTVKKIKISVRQYADIVLFNTAQYKVPVAMEEADDTVAPSSTFSKVYTLTPFLANNREKRGLALDGKLKHEDTNLASSTLLREGANREILGIIVSYKVKVKLVVSRGGLLGDLASSDVAVELPFTLMHPKPKEEPPHREVPESETPVDTNLIELDTNDDDIVFEDFAR
notes: range 1-393; Expressed as GST fusion in BL21(DE3) and removed from GST by thrombin; also called βarr1-393 minimal cysteine
[1]
  log IC50 of isoproterenol (ISO), [125I]-CYP competition binding, in the presence of βarr1 (no transducer: -6.82+/-0.03): -6.81 log
[2]
  log IC50 of isoproterenol (ISO), [125I]-CYP competition binding, in the presence of βarr1 (no transducer: -6.42+/-0.09): -6.49 log
[3]
  binding result: no binding (tested: micromolar concentrations)
